# Test results published in IntAct's records for PubMed 12540855.
# B1: Histone-lysine N-methyltransferase SETD7 (Homo sapiens), Q8WTS6 (parent)
# chain: MDSDDEMVEEAVEGHLDDDGLPHGFCTVTYSSTDRFEGNFVHGEKNGRGKFFFFDGSTLEGYYVDDALQGQGVYTYEDGGVLQGTYVDGELNGPAQEYDTDGRLIFKGQYKDNIRHGVCWIYYPDGGSLVGEVNEDGEMTGEKIAYVYPDERTALYGKFIDGEMIEGKLATLMSTEEGRPHFELMPGNSVYHFDKSTSSCISTNALLPDPYESERVYVAESLISSAGEGLFSKVAVGPNTVMSFYNGVRITHQEVDSRDWALNGNTLSLDEETVIDVPEPYNHVSKYCASLGHKANHSFTPNCIYDMFVHPRFGPIKCIRTLRAVEADEELTVAYGYDHSPPGKSGPEAPEWYQVELKAFQATQQK
# Variants of: B1
# Conditions: with h31_human H3C1, P68431
row,effect of a mutation on the interaction,Variant
1,decreasing interaction,MDSDDEMVEEAVEGHLDDDGLPHGFCTVTYSSTDRFEGNFVHGEKNGRGKFFFFDGSTLEGYYVDDALQGQGVYTYEDGGVLQGTYVDGELNGPAQEYDTDGRLIFKGQYKDNIRHGVCWIYYPDGGSLVGEVNEDGEMTGEKIAYVYPDERTALYGKFIDGEMIEGKLATLMSTEEGRPHFELMPGNSVYHFDKSTSSCISTNALLPDPYESERVYVAESLISSAGEGLFSKVAVGPNTVMSFANGVRITHQEVDSRDWALNGNTLSLDEETVIDVPEPYNHVSKYCASLGHKANHSFTPNCIYDMFVHPRFGPIKCIRTLRAVEADEELTVAYGYDHSPPGKSGPEAPEWYQVELKAFQATQQK [Y245A]
